What is called Kd is a measure of binding affinity in units of concentration. One may read the koff as the first-order rate constant of dissociation. Usually kon stands for the second-order rate constant of association.

Test [1] concerns the target T1, recombinant PTPRD-his protein, extracellular domain (Creative BioMart, PTPRD-36H) (Homo sapiens (Human), UniProt P23468 21-1265, biotinylated with EZ-Link-Sulfo-NHS-Biotin in the BLI assay).
T1 construct: only the extracellular domain stood in the assay; Used in the co-immunoprecipitation and in BLI; also called rPTPRD-his; PTPRD-6his; not shown: 6xHis tag
T1 sequence: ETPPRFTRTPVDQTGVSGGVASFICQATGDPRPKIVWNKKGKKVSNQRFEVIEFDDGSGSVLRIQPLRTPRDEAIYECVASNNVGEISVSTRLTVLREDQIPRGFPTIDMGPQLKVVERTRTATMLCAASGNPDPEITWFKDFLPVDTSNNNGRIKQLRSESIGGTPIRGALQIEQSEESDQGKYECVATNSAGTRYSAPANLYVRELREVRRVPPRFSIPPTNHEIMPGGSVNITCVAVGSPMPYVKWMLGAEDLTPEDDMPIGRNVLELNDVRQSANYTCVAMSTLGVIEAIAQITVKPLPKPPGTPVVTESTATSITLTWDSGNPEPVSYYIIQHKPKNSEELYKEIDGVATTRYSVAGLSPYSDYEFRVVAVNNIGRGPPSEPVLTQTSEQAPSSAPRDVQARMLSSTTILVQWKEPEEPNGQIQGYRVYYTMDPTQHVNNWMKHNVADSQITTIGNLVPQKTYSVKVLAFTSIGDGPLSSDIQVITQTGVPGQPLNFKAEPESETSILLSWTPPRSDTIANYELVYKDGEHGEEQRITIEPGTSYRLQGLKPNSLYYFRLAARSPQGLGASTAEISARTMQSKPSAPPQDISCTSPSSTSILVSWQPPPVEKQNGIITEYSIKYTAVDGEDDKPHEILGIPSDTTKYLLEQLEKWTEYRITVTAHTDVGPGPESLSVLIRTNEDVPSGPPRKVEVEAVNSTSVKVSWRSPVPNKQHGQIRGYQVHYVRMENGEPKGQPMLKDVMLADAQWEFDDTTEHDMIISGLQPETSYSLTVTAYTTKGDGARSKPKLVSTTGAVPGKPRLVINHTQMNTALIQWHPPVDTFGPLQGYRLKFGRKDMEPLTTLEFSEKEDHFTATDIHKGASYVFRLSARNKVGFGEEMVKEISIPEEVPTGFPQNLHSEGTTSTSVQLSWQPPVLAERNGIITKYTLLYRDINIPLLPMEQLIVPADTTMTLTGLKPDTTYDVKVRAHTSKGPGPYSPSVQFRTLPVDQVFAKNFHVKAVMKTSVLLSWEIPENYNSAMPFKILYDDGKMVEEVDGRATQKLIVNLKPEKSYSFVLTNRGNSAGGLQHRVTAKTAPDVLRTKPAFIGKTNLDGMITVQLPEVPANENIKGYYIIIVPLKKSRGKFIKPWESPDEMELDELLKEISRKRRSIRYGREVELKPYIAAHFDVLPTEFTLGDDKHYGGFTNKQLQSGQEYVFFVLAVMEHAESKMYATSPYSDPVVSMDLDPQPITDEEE
The test is described as follows: bio-layer interferometry (Octet RED96), biotinylated PTPRD on SSA biosensors, asprosin 1.23-900 nM, 1:1 global fit. Here is the method: (§1) Binding affinity of asprosin to PTPRD was measured on Pall ForteBio's Octet RED96 system. The PTPRD protein (Creative BioMart, PTPRD-36H) was labeled with Biotin using EZ-Link-Sulfo-NHS-Biotin (ThermoFisher Scientific, 21217) and desalted by Zeba™ Spin Desalting Columns. The biotin-labeled PTPRD (20 μg/ml) was loaded on the super streptavidin (SSA) biosensors for 300 seconds. Following 20 seconds of baseline in kinetics buffer, the loaded biosensors were dipped into a series of 3-fold diluted human asprosin (1.23-900 nM) for 300 seconds to record association kinetics and then dipped into a kinetic buffer for 600 seconds to record dissociation kinetics. Kinetic buffer without asprosin was set to correct the background. For fitting of KD value, ForteBio's data analysis software was used to fit the curve by a 1:1 binding model and the global fitting method was applied.
(In general: BLI is a label-free optical method that tracks binding on a fibre tip over time.)

The target in test [2] is T1, recombinant PTPRD-his protein, …. Briefly: bio-layer interferometry (Octet RED96), biotin-labelled PTPRD on super streptavidin biosensors, asprosin 1.23-900 nM in solution, 1:1 global fit. Here is the method:
as §1

For test [3], the target named is T2, PTPRD extracellular domain, His-tagged (Acro Biosystems, PTD-H52H9) (Homo sapiens (Human), UniProt P23468 21-1265).
T2 construct: only the extracellular domain stood in the assay; also called rPTPRD; rPTPRD-LBD; not shown: His tag (labelled with the His-Tag Labeling Kit RED-tris-NTA)
T2 sequence: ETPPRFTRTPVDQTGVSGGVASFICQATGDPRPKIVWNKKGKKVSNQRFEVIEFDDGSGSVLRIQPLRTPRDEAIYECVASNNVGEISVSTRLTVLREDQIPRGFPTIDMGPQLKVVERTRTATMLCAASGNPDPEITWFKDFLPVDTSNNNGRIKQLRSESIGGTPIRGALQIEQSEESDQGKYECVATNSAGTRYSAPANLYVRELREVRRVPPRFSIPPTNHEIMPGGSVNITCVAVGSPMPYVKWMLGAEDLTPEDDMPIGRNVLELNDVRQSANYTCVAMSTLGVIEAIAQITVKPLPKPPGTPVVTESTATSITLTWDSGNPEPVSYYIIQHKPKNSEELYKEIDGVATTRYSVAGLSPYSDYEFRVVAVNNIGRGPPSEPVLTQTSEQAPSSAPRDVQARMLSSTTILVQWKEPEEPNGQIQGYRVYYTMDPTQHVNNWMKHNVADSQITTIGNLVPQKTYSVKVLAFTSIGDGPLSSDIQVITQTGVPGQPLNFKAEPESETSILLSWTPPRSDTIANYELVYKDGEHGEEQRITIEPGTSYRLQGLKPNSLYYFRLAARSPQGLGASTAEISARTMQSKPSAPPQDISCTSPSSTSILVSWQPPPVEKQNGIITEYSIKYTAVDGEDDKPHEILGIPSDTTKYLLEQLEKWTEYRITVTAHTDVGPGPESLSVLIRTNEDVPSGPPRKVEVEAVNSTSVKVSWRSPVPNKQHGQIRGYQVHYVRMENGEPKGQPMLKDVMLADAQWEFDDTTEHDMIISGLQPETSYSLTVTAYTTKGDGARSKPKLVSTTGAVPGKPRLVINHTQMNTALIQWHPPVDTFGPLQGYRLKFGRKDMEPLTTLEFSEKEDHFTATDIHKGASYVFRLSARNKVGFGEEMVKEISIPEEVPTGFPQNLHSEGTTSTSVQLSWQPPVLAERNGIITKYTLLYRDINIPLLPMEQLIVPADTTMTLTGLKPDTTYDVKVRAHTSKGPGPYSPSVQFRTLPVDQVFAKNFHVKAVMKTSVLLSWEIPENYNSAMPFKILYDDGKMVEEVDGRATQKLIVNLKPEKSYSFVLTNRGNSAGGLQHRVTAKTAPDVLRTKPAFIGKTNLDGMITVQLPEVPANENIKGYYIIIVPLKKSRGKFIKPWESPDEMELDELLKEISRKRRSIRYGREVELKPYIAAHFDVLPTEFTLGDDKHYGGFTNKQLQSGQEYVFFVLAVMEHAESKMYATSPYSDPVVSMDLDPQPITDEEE
The test is described as follows: microscale thermophoresis, fluorescently labelled PTPRD, unlabelled asprosin titrated. Here is the method:
The microscale thermophoresis (MST) assay was performed with the Monolith NT.115 from NanoTemper Technologies. PTPRD (Acro Biosystems, PTD-H52H9) was fluorescently labeled according to the manufacturer's protocol (His-Tag Labeling Kit RED-tris-NTA, NanoTemper). A solution of unlabeled asprosin was serially diluted according to the manufacturer's protocol. After labeled PTPRD and unlabeled asprosin were mixed and incubated at room temperature for 30 minutes, samples were loaded into glass capillaries (Monolith NT.115 Capillaries, NanoTemper). Measurements were carried out according to manufacturer's protocol: 40% power and 40% MST power. Assays were repeated three times and KD's were calculated using the NanoTemper analysis software.
On the technique in general: In MST a laser heats a spot of the sample, and binding alters the fluorescence response.

Test [4] addresses T2, PTPRD extracellular domain, His-tagged …. Briefly: SPR (Biacore T200), PTPRD amine-coupled on CM5 chip, asprosin injected, steady-state analysis. Here is the method: Surface plasmon resonance (SPR) studies were performed using Biacore T200 with PTPRD (Acro Biosystems, PTD-H52H9) covalently immobilized on an S series CM5 sensor chip via amine coupling. To avoid protein aggregation, […] used in SPR experiments were purified by gel filtration in a buffer containing 25 mM Tris-HCl (pH 8.0), 100 mM NaCl and 5 mM DTT, stored at 4° C., and used within 48 hr with minimum concentration process. Asprosin was injected in a series of concentrations from […] to 7.8125 nM was injected at 30 μl/min over the sensor chip at room temperature. Sensorgram traces subtracted with the reference and zero-concentration traces were analyzed using BIA Evaluation software (GE Healthcare Bio-Sciences). Nonlinear steady-state analysis was performed to compute Kd.
A general note: In SPR one partner is held on a chip, and binding of the other changes the refractive index at the surface.

B1: recombinant human asprosin (ligand, UniProt P35555 2732-2871, looked up)
chain: STNETDASNIEDQSETEANVSLASWDVEKTAIFAFNISHVSNKVRILELLPALTTLTNHNRYLIESGNEDGFFKINQKEGISYLHFTKKKPVAGTYSLQISSTPLYKKKELNQLEDKYDKDYLSGELGDNLKMKIQVLLH
notes: domain: cleaved asprosin; Unlabelled analyte in SPR, MST and BLI, and the recombinant asprosin used in IP/MS, ELISA and slice electrophysiology; Only the BLI and ELISA methods call it human; also called rAsprosin; recombinant asprosin
As to B1, the Kd in test [1] was 57 nM; in test [3], 4.2 nM; in test [4] it was 36.8 nM. Further, the koff in test [2] stood at 0.000377 s⁻¹. In test [2], the kon turned out to be 6610 M⁻¹ s⁻¹.
